What was measured:
Assay in all cases: Kinase Profiling Assay
Format in all cases: biochemical
Details in all cases: 100 μM
ZIPK(h) = ZIPK(h) (Homo sapiens, UniProt O43293)
EphA2(h) = EphA2(h) (Homo sapiens, UniProt P29317)
GRK6(h) = GRK6(h) (Homo sapiens, UniProt P43250)
PKCθ(h) = PKCθ(h) (Homo sapiens, UniProt Q04759)
EphB1(h) = target: T1, EphB1(h) (Homo sapiens, UniProt P54762)
T1 sequence (P54762 18-984): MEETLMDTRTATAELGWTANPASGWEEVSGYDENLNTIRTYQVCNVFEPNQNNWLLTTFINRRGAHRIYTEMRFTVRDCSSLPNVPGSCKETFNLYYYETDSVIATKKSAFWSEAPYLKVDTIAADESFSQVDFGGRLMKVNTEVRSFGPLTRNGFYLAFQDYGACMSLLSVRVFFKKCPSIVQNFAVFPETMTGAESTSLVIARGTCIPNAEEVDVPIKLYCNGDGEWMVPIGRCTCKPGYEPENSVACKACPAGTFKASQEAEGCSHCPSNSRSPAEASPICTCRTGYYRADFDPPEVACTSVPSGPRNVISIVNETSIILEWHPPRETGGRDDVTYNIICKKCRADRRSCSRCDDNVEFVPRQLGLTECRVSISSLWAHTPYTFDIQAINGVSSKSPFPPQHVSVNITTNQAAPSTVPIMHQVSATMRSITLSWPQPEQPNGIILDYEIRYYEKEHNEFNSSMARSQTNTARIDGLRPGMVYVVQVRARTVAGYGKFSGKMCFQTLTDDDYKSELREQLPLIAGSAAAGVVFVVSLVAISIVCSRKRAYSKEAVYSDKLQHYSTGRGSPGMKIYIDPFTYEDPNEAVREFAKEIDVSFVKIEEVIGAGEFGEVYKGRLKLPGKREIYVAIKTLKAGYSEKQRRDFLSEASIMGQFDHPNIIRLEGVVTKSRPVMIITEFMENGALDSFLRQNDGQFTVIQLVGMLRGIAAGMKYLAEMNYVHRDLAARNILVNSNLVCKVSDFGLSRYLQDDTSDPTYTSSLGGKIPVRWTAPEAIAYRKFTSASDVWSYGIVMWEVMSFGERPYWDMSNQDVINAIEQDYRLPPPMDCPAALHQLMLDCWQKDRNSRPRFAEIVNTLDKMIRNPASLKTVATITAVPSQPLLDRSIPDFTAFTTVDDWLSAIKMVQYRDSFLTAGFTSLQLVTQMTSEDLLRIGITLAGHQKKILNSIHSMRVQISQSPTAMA

Pim-2(h) = Pim-2(h) (Homo sapiens, UniProt Q9P1W9)
Axl(h) = Axl(h) (Homo sapiens, UniProt P30530)
PKCβI(h) = PKCβI(h) (Homo sapiens, UniProt P05771)
PhKγ2(h) = target: T2, PhKγ2(h) (Homo sapiens, UniProt P15735)
T2 sequence (P15735 1-406): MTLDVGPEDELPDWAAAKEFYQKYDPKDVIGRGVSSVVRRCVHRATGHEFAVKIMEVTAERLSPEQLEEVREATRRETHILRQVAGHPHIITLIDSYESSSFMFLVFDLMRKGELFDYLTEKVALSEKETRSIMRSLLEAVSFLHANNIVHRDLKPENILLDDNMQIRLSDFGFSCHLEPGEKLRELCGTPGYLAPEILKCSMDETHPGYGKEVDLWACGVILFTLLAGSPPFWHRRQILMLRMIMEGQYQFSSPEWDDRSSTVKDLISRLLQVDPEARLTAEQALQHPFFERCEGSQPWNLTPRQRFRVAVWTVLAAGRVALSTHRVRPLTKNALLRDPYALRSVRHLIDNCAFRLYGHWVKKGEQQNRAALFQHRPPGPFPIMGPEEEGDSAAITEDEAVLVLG

DAPK1(h) = DAPK1(h) (Homo sapiens, UniProt P53355)
TAO1(h) = target: T3, TAO1(h) (Homo sapiens, UniProt Q7L7X3)
T3 sequence (Q7L7X3 1-1001): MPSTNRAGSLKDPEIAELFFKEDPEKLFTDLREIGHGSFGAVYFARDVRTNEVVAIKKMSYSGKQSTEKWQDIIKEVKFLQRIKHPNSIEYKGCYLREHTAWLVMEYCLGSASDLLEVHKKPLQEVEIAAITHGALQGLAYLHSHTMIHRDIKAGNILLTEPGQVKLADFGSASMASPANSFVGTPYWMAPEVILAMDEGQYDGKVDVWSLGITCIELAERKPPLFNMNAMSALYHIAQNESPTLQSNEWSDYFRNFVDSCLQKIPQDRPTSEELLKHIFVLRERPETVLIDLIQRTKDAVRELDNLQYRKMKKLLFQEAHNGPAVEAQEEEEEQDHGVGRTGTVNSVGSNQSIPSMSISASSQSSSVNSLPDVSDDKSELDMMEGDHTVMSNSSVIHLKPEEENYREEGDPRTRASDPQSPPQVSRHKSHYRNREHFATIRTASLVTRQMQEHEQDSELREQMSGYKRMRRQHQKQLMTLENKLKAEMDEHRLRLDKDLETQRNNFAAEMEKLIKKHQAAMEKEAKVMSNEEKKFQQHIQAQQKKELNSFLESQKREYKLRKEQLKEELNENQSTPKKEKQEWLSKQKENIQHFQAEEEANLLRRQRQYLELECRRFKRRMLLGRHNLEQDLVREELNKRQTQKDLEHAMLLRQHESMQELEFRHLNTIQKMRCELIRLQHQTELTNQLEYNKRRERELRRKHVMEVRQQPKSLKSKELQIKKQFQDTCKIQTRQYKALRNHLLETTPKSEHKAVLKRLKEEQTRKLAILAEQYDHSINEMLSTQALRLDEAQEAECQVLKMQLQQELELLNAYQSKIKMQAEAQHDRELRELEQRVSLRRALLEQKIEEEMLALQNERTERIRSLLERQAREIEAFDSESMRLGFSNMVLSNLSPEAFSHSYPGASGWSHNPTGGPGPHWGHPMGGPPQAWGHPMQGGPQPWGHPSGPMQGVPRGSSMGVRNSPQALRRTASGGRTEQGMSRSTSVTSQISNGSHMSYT

MEK1(h) = MEK1(h) (Homo sapiens, UniProt Q02750)

ZIPK(h), sequence (O43293 whole entry): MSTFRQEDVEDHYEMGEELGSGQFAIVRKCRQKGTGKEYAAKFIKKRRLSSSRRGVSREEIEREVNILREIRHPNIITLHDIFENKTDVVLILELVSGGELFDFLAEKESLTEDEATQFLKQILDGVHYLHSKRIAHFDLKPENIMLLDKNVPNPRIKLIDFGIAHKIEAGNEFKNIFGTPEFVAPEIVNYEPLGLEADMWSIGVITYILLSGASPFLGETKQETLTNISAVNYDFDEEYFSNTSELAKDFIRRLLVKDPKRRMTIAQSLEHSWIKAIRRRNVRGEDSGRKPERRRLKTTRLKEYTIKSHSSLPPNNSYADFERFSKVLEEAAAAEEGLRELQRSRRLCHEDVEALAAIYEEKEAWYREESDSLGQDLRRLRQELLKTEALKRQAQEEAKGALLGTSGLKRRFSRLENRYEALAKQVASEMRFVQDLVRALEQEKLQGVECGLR
PKCθ(h), sequence (Q04759 whole entry): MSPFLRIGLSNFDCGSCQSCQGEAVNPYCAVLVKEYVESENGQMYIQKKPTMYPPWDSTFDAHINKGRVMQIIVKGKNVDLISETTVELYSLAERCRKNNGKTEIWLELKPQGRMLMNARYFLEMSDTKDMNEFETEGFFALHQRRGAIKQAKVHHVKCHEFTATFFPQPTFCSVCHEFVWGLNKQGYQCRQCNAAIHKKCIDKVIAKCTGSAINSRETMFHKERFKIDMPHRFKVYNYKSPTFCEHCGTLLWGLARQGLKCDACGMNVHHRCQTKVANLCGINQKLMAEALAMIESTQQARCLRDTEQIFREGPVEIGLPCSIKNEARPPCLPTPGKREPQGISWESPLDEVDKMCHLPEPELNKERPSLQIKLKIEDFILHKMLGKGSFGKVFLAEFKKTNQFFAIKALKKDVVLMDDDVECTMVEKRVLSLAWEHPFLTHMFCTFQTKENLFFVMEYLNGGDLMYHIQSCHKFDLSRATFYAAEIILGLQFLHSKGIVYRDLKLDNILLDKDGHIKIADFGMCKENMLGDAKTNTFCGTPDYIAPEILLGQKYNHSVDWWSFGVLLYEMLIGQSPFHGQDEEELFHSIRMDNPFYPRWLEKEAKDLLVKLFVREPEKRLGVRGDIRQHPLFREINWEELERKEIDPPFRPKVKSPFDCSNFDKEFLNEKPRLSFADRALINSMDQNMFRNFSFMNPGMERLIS
PKCβI(h), sequence (P05771 whole entry): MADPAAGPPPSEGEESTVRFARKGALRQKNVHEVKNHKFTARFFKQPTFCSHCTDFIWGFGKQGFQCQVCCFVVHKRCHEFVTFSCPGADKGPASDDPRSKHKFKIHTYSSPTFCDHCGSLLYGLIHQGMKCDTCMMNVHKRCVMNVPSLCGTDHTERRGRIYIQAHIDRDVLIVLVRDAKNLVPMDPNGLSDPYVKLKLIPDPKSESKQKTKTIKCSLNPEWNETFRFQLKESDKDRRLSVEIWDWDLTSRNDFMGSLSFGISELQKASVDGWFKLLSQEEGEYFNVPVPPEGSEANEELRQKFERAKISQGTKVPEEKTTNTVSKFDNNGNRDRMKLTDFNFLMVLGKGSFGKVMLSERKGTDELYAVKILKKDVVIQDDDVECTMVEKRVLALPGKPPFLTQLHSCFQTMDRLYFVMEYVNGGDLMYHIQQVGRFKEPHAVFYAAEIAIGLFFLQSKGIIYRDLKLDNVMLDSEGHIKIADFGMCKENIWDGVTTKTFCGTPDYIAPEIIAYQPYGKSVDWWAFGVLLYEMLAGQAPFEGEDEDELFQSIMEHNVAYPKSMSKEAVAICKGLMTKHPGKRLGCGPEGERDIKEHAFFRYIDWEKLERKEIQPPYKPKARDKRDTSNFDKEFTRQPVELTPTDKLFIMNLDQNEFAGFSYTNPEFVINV
GRK6(h), sequence (P43250 whole entry): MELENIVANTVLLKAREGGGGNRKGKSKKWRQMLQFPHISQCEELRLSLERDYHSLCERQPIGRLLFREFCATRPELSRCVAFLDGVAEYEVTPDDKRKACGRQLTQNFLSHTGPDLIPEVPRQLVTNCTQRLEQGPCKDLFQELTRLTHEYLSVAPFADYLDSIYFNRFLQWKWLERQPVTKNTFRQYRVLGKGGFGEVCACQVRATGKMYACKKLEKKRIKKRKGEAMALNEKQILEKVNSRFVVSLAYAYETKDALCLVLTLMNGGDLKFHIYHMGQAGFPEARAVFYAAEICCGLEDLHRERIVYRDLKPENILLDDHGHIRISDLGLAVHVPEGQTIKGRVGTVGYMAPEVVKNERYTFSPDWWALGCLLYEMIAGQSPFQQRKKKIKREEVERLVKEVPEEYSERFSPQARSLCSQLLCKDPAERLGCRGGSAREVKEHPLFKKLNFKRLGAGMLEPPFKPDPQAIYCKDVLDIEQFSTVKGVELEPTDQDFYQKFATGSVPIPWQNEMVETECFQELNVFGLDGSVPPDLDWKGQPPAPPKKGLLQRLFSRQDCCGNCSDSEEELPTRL
DAPK1(h), sequence (P53355 whole entry): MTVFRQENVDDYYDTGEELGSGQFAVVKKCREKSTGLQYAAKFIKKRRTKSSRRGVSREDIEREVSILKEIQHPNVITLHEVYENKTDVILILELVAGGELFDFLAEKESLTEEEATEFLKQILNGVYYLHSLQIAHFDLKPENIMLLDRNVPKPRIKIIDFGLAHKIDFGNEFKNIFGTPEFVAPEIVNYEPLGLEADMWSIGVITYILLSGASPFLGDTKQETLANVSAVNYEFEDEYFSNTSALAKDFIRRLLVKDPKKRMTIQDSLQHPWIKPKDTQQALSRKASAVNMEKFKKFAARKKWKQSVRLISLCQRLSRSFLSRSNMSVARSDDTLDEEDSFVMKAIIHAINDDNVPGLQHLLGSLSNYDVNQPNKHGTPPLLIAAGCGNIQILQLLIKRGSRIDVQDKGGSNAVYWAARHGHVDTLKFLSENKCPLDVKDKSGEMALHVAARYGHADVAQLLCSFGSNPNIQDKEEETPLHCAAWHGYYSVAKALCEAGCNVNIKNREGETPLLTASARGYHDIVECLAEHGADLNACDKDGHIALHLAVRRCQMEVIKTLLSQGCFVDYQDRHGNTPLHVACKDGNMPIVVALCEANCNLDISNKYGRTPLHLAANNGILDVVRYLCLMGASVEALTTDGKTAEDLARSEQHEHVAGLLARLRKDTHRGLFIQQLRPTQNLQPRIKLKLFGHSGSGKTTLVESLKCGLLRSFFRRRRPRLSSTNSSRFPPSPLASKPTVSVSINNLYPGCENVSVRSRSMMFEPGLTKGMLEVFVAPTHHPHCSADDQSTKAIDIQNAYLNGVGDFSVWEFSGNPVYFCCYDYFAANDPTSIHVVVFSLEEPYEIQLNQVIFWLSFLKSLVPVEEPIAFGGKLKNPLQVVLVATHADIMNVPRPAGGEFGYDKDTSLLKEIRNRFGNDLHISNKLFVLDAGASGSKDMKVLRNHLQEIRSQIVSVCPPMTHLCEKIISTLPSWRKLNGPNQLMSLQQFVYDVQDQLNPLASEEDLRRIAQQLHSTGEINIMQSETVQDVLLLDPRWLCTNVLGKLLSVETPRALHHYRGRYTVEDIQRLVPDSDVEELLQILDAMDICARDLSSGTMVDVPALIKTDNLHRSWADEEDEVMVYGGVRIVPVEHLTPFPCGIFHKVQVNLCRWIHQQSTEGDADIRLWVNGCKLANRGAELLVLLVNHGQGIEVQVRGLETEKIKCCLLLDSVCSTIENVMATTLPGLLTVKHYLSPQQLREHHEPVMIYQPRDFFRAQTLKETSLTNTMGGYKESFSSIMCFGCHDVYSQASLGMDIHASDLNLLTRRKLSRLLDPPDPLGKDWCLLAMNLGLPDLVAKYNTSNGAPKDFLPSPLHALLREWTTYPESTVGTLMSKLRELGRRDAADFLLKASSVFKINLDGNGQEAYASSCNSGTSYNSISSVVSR
Pim-2(h), sequence (Q9P1W9 whole entry): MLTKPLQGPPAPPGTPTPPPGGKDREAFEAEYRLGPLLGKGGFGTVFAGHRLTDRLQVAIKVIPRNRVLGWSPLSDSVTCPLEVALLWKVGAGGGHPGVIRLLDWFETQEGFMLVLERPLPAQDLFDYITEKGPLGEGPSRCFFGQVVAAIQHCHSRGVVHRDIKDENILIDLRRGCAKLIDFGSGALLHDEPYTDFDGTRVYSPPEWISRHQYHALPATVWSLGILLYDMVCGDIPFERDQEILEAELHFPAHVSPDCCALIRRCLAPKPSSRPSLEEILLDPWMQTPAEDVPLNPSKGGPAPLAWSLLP

Sequence | % activity (ZIPK(h)) [%] | % activity (EphA2(h)) [%] | % activity (GRK6(h)) [%] | % activity (PKCθ(h)) [%] | % activity (EphB1(h)) [%] | % activity (Pim-2(h)) [%] | % activity (Axl(h)) [%] | % activity (PKCβI(h)) [%] | % activity (PhKγ2(h)) [%] | % activity (DAPK1(h)) [%] | % activity (TAO1(h)) [%] | % activity (MEK1(h)) [%]
YARAAARQARAKALNRQLGVA [MMI-0200] | 67 | 95 | 132 | 101 | 95 | 74 | 99 | 98 | 86 | – | – | –
FAKLAARLYRKALARQLGVAA [MMI-0300] | 28 | 31 | 147 | 88 | 44 | 76 | 52 | 78 | 46 | 46 | 82 | 77
KAFAKLAARLYRKALARQLGVAA [MMI-0400] | 13 | 17 | 141 | 76 | 58 | 92 | 41 | 78 | 38 | 36 | 73 | 77
HRRIKAWLKKIKALARQLGVAA [MMI-0500] | 1 | – | 174 | 62 | 37 | 46 | 12 | 1 | 16 | 0 | 24 | 21
